Experimental findings from publication PMC8981723 are described below.

The target of this assay is Human PLA2G1B (phospholipase A2 group 1B), active form (human) (UniProt P04054).

Substance “Recombinant HIV-1 gp41 MN protein (gp41 MN (565-771Delta642-725)) (from UniProt P05877 565-771) (domain or fragment)” registered a PLA2G1B enzymatic activity ([3H]AA release from labeled human CD4 T cells), PLA2G1B 63 nM, gp41 0.68 nM-340 nM above 20 fold.
